Reference: patent publication US20040248211A1, “ICAM-related protein” (priority 1992, published 2004)

Tests used:
Type in all cases: cell-based, human
[1] = tested on: J77.50.3 cell lines; assay: ICR-1.1 induced aggregation of J77.50.3 lines; conditions: for ICR-1.1 induced aggregation: ICR-1.1 10 μg/ml, 1 and 24 hours; for Percent Aggregation: repeated experiments, Vector 17
Method: One of these monoclonal antibodies (ICR-1.1) was used to induce aggregation of the J77.50.3 cell lines expressing either full length ICAM-R (haFL) or carboxy terminal variants of ICAM-R. ICR-1.1 was added to 200,000 cells at 10 μg/ml in 96 well plates and incubated 37° C. At 1 and 24 hours after incubation the wells were visually screened for aggregates.

[2] = tested on: J77.50.3 cells; assay: IL-2 induction in J77.50.3 lines expressing ICAM-R variants; conditions: for IL-2 Induction (Fold Stimulation): repeated experiments, Vector 0.52
Method: This dose of antibody alone provides minimal signalling for IL-2 release. The OKT3 treatment was removed and replaced with buffer alone or anti-ICAM-R (ICR-1.1) (10 ug/ml in PBS-D) and incubated at 37° C. for at least 2 hours. Monoclonal antibody coating was done in replicates of two or more wells and pooled to provide sufficient quantities of conditioned media for ELISA and/or bioassay. Two hundred fifty thousand Jurkat cells or transfectants thereof, were placed into antibody coated wells or buffer coated negative control wells in 0.1 ml of RPMI complete medium. Following incubation of about 16-24 hrs at 37° C. in a humidified atmosphere containing 5% CO2, the medium was transferred to a fresh 96 well round bottom plate, spun to pellet cells carried over and transferred to a fresh plate. Samples were frozen and stored at −70° C. IL-2 ELISAs were performed using commercially available kits (Biosource Intl. Co., Carmarille, Calif.) by making serial dilutions of the samples.
Experiments were performed using two independently isolated cell lines for each plasmid construct or the vector alone. Stable lines expressing similar levels of ICAM-R variants, as determined by indirect flow cytometry, were chosen for functional studies. Cells were costimulated with plate immobilized monoclonal antibodies ICR-1.1 and OKT3, and IL-2 release from the lines was quantitated by ELISA as previously described in Example 25C. Results were expressed as fold increase of IL-2 released from cells plated onto co-immobilized ICR-1.1 (10 μg/ml) plus OKt3 (1 μg/ml) divided by release from OKT3 ([…]) alone. The full length ICAM-R protein (haFL) gave 3.1 fold induction. The deletions gave the following fold inductions: haCTΔ505 induction was 1.5 fold, haCTΔ493 induction was 1.3 fold, haCTΔ484 was 0.8 fold. Vector control induction was 0.7 fold. […] In addition, removal of the residues 505-518 leads to the most significant reduction in co-stimulatory responsiveness. This implies that residues 505-518 play a relatively larger role in the response as compared to residues 484-505.

[3] = tested on: J77.50.3 cell lines; assay: Cell spreading on ICR-1.1 coated plastic; conditions: 20 minutes at 37° C.
Method: To ascertain additional functional consequences of ICAM-R carboxyl terminal deletions, the Jurkat cell lines expressing the. ICAM-R variants described above were tested for the ability to adhere and spread on antibody coated plastic or to undergo antibody-mediated aggregation. Bacterial petri plates were coated with 50 μl drops of ICR-1.1 or w6/32 (10 μg/ml) (anti-MHC class I isotype matched control monoclonal antibody) in PBS for 120 minutes at 37° C. The plastic was rinsed twice prior to spotting 50 μl drops of J77.50.3 cell lines. Duplicate cell lines expressing these proteins at equivalent levels were tested. After 20 minutes at 37° C. the plate was flooded with 2% glutaraldehyde in PBS and incubated for 30 minutes to fix adherent cells. Fixed cells were rinsed twice with PBS and scored visually for the ability to flatten and spread. […] Weyrich et al., J. Clin. Invest., 95: 2297-2303 (1995) recently described the effect of a ICR-1.1 coated plastic surface on normal monocytes from peripheral blood. After two hours, these cells flattened down and spread with a similar overall morphology to that seen with the haFL expressing J77.50.3 cell line.

Molecule	ICR-1.1 induced aggregation [1]	Percent Aggregation [1]	IL-2 Induction (Fold Stimulation) [2]	fold increase of IL-2 released (ICR-1.1 plus OKT3 divided by OKT3 alone) ([2]; vector control 0.7 fold)	spreading on ICR-1.1 coated plastic [3]
haFL: HA-tagged full length ICAM-R expressed in J77.50.3 cells (protein, UniProt P32942 1-547, looked up, full-length HA tag, HA-tagged full length ICAM-R expressed in J77.50.3 cells) MATMVPSVLWPRACWTLLVCCLLTPGVQGQEFLLRVEPQNPVLSAGGSLFVNCSTDCPSSEKIALETSLSKELVASGMGWAAFNLSNVTGNSRILCSVYCNGSQITGSSNITVYRLPERVELAPLPPWQPVGQNFTLRCQVEDGSPRTSLTVVLLRWEEELSRQPAVEEPAEVTATVLASRDDHGAPFSCRTELDMQPQGLGLFVNTSAPRQLRTFVLPVTPPRLVAPRFLEVETSWPVDCTLDGLFPASEAQVYLALGDQMLNATVMNHGDTLTATATATARADQEGAREIVCNVTLGGERREARENLTVFSFLGPIVNLSEPTAHEGSTVTVSCMAGARVQVTLDGVPAAAPGQPAQLQLNATESDDGRSFFCSATLEVDGEFLHRNSSVQLRVLYGPKIDRATCPQHLKWKDKTRHVLQCQARGNPYPELRCLKEGSSREVPVGIPFFVNVTHNGTYQCQASSSRGKYTLVVVMDIEAGSSHFVPVFVAVLLTLGVVTIVLALMYVFREHQRSGSYHVREESTYLPLTSMQPTEAMGEEPSRAE	aggregation competent	55%	5.4 Fold	3.1 fold	spread onto the ICR-1.1 coated plastic surface
Tyr479Phe: ICAM-R cytoplasmic domain point mutant (protein, UniProt P32942 30-547, looked up, variant Y479F) Intercellular adhesion …: QEFLLRVEPQNPVLSAGGSLFVNCSTDCPSSEKIALETSLSKELVASGMGWAAFNLSNVTGNSRILCSVYCNGSQITGSSNITVYRLPERVELAPLPPWQPVGQNFTLRCQVEDGSPRTSLTVVLLRWEEELSRQPAVEEPAEVTATVLASRDDHGAPFSCRTELDMQPQGLGLFVNTSAPRQLRTFVLPVTPPRLVAPRFLEVETSWPVDCTLDGLFPASEAQVYLALGDQMLNATVMNHGDTLTATATATARADQEGAREIVCNVTLGGERREARENLTVFSFLGPIVNLSEPTAHEGSTVTVSCMAGARVQVTLDGVPAAAPGQPAQLQLNATESDDGRSFFCSATLEVDGEFLHRNSSVQLRVLYGPKIDRATCPQHLKWKDKTRHVLQCQARGNPYPELRCLKEGSSREVPVGIPFFVNVTHNGTYQCQASSSRGKYTLVVVMDIEAGSSHFVPVFVAVLLTLGVVTIVLALMFVFREHQRSGSYHVREESTYLPLTSMQPTEAMGEEPSRAE	aggregation competent	–	4.9 Fold	–	spread onto the ICR-1.1 coated plastic surface
Ser487Ala: ICAM-R cytoplasmic domain point mutant (protein, UniProt P32942 30-547, looked up, variant S487A) Intercellular adhesion …: QEFLLRVEPQNPVLSAGGSLFVNCSTDCPSSEKIALETSLSKELVASGMGWAAFNLSNVTGNSRILCSVYCNGSQITGSSNITVYRLPERVELAPLPPWQPVGQNFTLRCQVEDGSPRTSLTVVLLRWEEELSRQPAVEEPAEVTATVLASRDDHGAPFSCRTELDMQPQGLGLFVNTSAPRQLRTFVLPVTPPRLVAPRFLEVETSWPVDCTLDGLFPASEAQVYLALGDQMLNATVMNHGDTLTATATATARADQEGAREIVCNVTLGGERREARENLTVFSFLGPIVNLSEPTAHEGSTVTVSCMAGARVQVTLDGVPAAAPGQPAQLQLNATESDDGRSFFCSATLEVDGEFLHRNSSVQLRVLYGPKIDRATCPQHLKWKDKTRHVLQCQARGNPYPELRCLKEGSSREVPVGIPFFVNVTHNGTYQCQASSSRGKYTLVVVMDIEAGSSHFVPVFVAVLLTLGVVTIVLALMYVFREHQRAGSYHVREESTYLPLTSMQPTEAMGEEPSRAE	–	61%	2.0 Fold	–	–
Ser489Ala: ICAM-R cytoplasmic domain point mutant (protein, UniProt P32942 30-547, looked up, variant S489A) Intercellular adhesion …: QEFLLRVEPQNPVLSAGGSLFVNCSTDCPSSEKIALETSLSKELVASGMGWAAFNLSNVTGNSRILCSVYCNGSQITGSSNITVYRLPERVELAPLPPWQPVGQNFTLRCQVEDGSPRTSLTVVLLRWEEELSRQPAVEEPAEVTATVLASRDDHGAPFSCRTELDMQPQGLGLFVNTSAPRQLRTFVLPVTPPRLVAPRFLEVETSWPVDCTLDGLFPASEAQVYLALGDQMLNATVMNHGDTLTATATATARADQEGAREIVCNVTLGGERREARENLTVFSFLGPIVNLSEPTAHEGSTVTVSCMAGARVQVTLDGVPAAAPGQPAQLQLNATESDDGRSFFCSATLEVDGEFLHRNSSVQLRVLYGPKIDRATCPQHLKWKDKTRHVLQCQARGNPYPELRCLKEGSSREVPVGIPFFVNVTHNGTYQCQASSSRGKYTLVVVMDIEAGSSHFVPVFVAVLLTLGVVTIVLALMYVFREHQRSGAYHVREESTYLPLTSMQPTEAMGEEPSRAE	–	25%	2.9 Fold	–	–
Ser503Ala: ICAM-R cytoplasmic domain point mutant (protein, UniProt P32942 30-547, looked up, variant S503A) Intercellular adhesion …: QEFLLRVEPQNPVLSAGGSLFVNCSTDCPSSEKIALETSLSKELVASGMGWAAFNLSNVTGNSRILCSVYCNGSQITGSSNITVYRLPERVELAPLPPWQPVGQNFTLRCQVEDGSPRTSLTVVLLRWEEELSRQPAVEEPAEVTATVLASRDDHGAPFSCRTELDMQPQGLGLFVNTSAPRQLRTFVLPVTPPRLVAPRFLEVETSWPVDCTLDGLFPASEAQVYLALGDQMLNATVMNHGDTLTATATATARADQEGAREIVCNVTLGGERREARENLTVFSFLGPIVNLSEPTAHEGSTVTVSCMAGARVQVTLDGVPAAAPGQPAQLQLNATESDDGRSFFCSATLEVDGEFLHRNSSVQLRVLYGPKIDRATCPQHLKWKDKTRHVLQCQARGNPYPELRCLKEGSSREVPVGIPFFVNVTHNGTYQCQASSSRGKYTLVVVMDIEAGSSHFVPVFVAVLLTLGVVTIVLALMYVFREHQRSGSYHVREESTYLPLTAMQPTEAMGEEPSRAE	–	64%	1.0 Fold	–	–
Ser515Ala: ICAM-R cytoplasmic domain point mutant (protein, UniProt P32942 30-547, looked up, variant S515A) Intercellular adhesion …: QEFLLRVEPQNPVLSAGGSLFVNCSTDCPSSEKIALETSLSKELVASGMGWAAFNLSNVTGNSRILCSVYCNGSQITGSSNITVYRLPERVELAPLPPWQPVGQNFTLRCQVEDGSPRTSLTVVLLRWEEELSRQPAVEEPAEVTATVLASRDDHGAPFSCRTELDMQPQGLGLFVNTSAPRQLRTFVLPVTPPRLVAPRFLEVETSWPVDCTLDGLFPASEAQVYLALGDQMLNATVMNHGDTLTATATATARADQEGAREIVCNVTLGGERREARENLTVFSFLGPIVNLSEPTAHEGSTVTVSCMAGARVQVTLDGVPAAAPGQPAQLQLNATESDDGRSFFCSATLEVDGEFLHRNSSVQLRVLYGPKIDRATCPQHLKWKDKTRHVLQCQARGNPYPELRCLKEGSSREVPVGIPFFVNVTHNGTYQCQASSSRGKYTLVVVMDIEAGSSHFVPVFVAVLLTLGVVTIVLALMYVFREHQRSGSYHVREESTYLPLTSMQPTEAMGEEPARAE	–	15%	2.1 Fold	–	–
